Reference: PMC10174300

Biological target: T cell immunoglobulin-3 (TIM-3) (human (endogenous in CD3+ T cells from PBMCs)) (UniProt Q8TDQ0)

Sequence of Galectin-9 (O00182 whole entry): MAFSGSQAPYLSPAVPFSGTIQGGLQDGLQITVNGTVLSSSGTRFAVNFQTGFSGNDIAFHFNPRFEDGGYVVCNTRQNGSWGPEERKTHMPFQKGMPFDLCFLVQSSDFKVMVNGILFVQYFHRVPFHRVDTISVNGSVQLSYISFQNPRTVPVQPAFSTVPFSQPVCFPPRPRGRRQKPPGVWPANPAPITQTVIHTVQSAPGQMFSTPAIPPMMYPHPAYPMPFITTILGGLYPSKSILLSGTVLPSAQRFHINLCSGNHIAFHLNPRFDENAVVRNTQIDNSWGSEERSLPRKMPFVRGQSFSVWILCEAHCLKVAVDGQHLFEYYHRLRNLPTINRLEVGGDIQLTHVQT

Substance: Galectin-9 (from UniProt O00182 1-355) (ligand)
- T cell proliferation (DELFIA, TRF intensity) of activated CD3+ T cells treated with Galectin-9 at 55.6 nM, against activated T cells without Galectin-9: 50%
